Experimental data reported in patent US20230037682A1.

Molecular target: CD3 peptide
Experiment: SPR (Biacore); 25 °C

J6MO_SP34 (sp34)
Kd: 13.9 nM
